Assays:
Assay in all cases: fluorescent release of 4-methylumbelliferone (chitinase assay kit CS1030)
Assay type in all cases: biochemical, Chitinophaga pinensis
Conditions in all cases: kit manufacturer's conditions
[1] = substrate: CC(=O)N[C@H]1[C@H](Oc2ccc3c(C)cc(=O)oc3c2)O[C@H](CO)[C@@H](O[C@@H]2O[C@H](CO)[C@@H](O[C@@H]3O[C@H](CO)[C@@H](O)[C@H](O)[C@H]3NC(C)=O)[C@H](O)[C@H]2NC(C)=O)[C@@H]1O
Text: fluorescent release of 4-methylumbelliferone (chitinase assay kit CS1030) on CpChiAC-CBM5

[2] = substrate: CC(=O)N[C@H]1[C@H](Oc2ccc3c(C)cc(=O)oc3c2)O[C@H](CO)[C@@H](O[C@@H]2O[C@H](CO)[C@@H](O[C@@H]3O[C@H](CO)[C@@H](O)[C@H](O)[C@H]3NC(C)=O)[C@H](O)[C@H]2NC(C)=O)[C@@H]1O; remark: listed apart in the source
Text: fluorescent release of 4-methylumbelliferone (chitinase assay kit CS1030) on CpChiB-CBM6

[3] = substrate: CC(=O)N[C@H]1[C@H](Oc2ccc3c(C)cc(=O)oc3c2)O[C@H](CO)[C@@H](O[C@@H]2O[C@H](CO)[C@@H](O[C@@H]3O[C@H](CO)[C@@H](O)[C@H](O)[C@H]3NC(C)=O)[C@H](O)[C@H]2NC(C)=O)[C@@H]1O; remark: listed apart in the source
Text: fluorescent release of 4-methylumbelliferone (chitinase assay kit CS1030) on CpChiB

[4] = substrate: CC(=O)N[C@H]1[C@H](Oc2ccc3c(C)cc(=O)oc3c2)O[C@H](CO)[C@@H](O[C@@H]2O[C@H](CO)[C@@H](O[C@@H]3O[C@H](CO)[C@@H](O)[C@H](O)[C@H]3NC(C)=O)[C@H](O)[C@H]2NC(C)=O)[C@@H]1O; remark: listed apart in the source
Text: fluorescent release of 4-methylumbelliferone (chitinase assay kit CS1030) on […]

B1: CpChiAC-CBM5 (Chitinophaga pinensis DSM 2588) (protein)
chain: KVVVGYWQNWNLASAPYIRLRDVDSRYNVIEVAFGTTSSDLSTVNFTPEGTTVADFKADIATLQAQGRKVLLSLGGETGTLVINTEANKQAFISSMKNLLDSYNFDGFDLDIEGGTSLQLNNGDNNFMAPTTPKVVNLIAAAKEIISYRKAQGKNCLLTMAPETYYVQTAYGATYSPLVGAYLPIIYGLRNELSWIQPQLYNTGSVMGLDNKVYNSTTADFIVSMTEMLLQGFPVSGTSQTFPALREDQVAFGLPAAPGAAGSGYTAPAEVKKALNYLTKGQSYGGTYVIRKAAGYPGLRGIMTWSVNWDKVNNSEFAANYYPYFFGTTPGNQSPVVSITSPASGASFTAPASITITASASDADGSIAKVEFYNGATKLGQATAAPYSYTWTNVAAATYSLTAVATDNAGAVTTSAAVSVTVNGTGGNTCDGIAAWSATIAYNGSQQVVYNGKIYTAKWWTQGDQPDTHSGADQVWAYVRDCGGSNPGNQAPTVSITSPSAGASFSAPATVTIQATAADADGTIAKVEFYNGNTKLGEVTASPYSYTWGNVAAGAYSITAVATDNGSKSTTSAAVAIQVGSGNTGNCAGVAAYEPFPKVYNQGDKVVYNGVLYESQSNGLYNVTPGTADWWWKPLGACGAAARVAVVSPEPDGVNADSKLVVFPNPLTGTVLKVQINAAQGEKVLIELWSTNGNAILRKQIVAGAKGQQTVDLDVSQVPAGSWILKTSNQQSGRKSAAKVIRL
notes: C-terminal His6 tag (pET21a), E. coli BL21(DE3)
**Q.** Which Km [1] does the source give for B1 here?
**A.** 290 ± 0.2 µM

**Q.** And the kcat [1]?
**A.** 3.0285 ± 0.0383 s⁻¹

**Q.** What about the kcat/Km [1] of the same protein?
**A.** 10600 M⁻¹ s⁻¹

B2: CpChiB-CBM6 (Chitinophaga pinensis DSM 2588) (protein)
chain: QFKVVGYMPSWSGSVSAIQYSKLTHINYAFALPTSTGGLQPIENPSKLSSLVSSGHANGVKVLIAIGGWNNGDDGAFESLAANATYRTNFVNNVMNFVNQYGLDGVDMDWEYPDAGASANNYLALMQQLSTALHNNGKLLTAAVVGTGGASILNGVFNVVDFLNLMAYDYNNYEHSTYTYASQSLSYWVGRGLPASKAILGVPFYARPSWNSYATLLANGANPNSDYFGSDYYNGLPTIRSKTNLAFDQGGGIMMWELSQDATGANSLLSAIYQVKLDRTGTNPPTGSTLIQAENYTSMSGVQVEATTDAGGGSNVGYIETGDWLAYANINFPTSGAYKVEYRVASQSTGGQLSLDLNSGAIVLGYLNVPVTGGWQTWTTISHNVNVTAGTYSLGVYAQSGGWNINWIRITKVAS
notes: as for B1
**Q.** B2 was tested. Which Km [2] did it give?
**A.** 120 ± 3 µM

**Q.** What about the kcat [2] of the same protein?
**A.** 1.005 ± 0.0533 s⁻¹

**Q.** And the kcat/Km [2]?
**A.** 8150 M⁻¹ s⁻¹

B3: CpChiB (Chitinophaga pinensis DSM 2588) (protein)
chain: QFKVVGYMPSWSGSVSAIQYSKLTHINYAFALPTSTGGLQPIENPSKLSSLVSSGHANGVKVLIAIGGWNNGDDGAFESLAANATYRTNFVNNVMNFVNQYGLDGVDMDWEYPDAGASANNYLALMQQLSTALHNNGKLLTAAVVGTGGASILNGVFNVVDFLNLMAYDYNNYEHSTYTYASQSLSYWVGRGLPASKAILGVPFYARPSWNSYATLLANGANPNSDYFGSDYYNGLPTIRSKTNLAFDQGGGIMMWELSQDATGANSLLSAIYQVKLDR
notes: as for B1
**Q.** For B3, which Km [3] is on record?
**A.** 240 ± 10 µM

**Q.** And the kcat [3]?
**A.** 2.199 ± 0.148 s⁻¹

**Q.** What about the kcat/Km [3] of the same protein?
**A.** 8850 M⁻¹ s⁻¹

B4: CpChiAC (Chitinophaga pinensis DSM 2588) (protein)
chain: KVVVGYWQNWNLASAPYIRLRDVDSRYNVIEVAFGTTSSDLSTVNFTPEGTTVADFKADIATLQAQGRKVLLSLGGETGTLVINTEANKQAFISSMKNLLDSYNFDGFDLDIEGGTSLQLNNGDNNFMAPTTPKVVNLIAAAKEIISYRKAQGKNCLLTMAPETYYVQTAYGATYSPLVGAYLPIIYGLRNELSWIQPQLYNTGSVMGLDNKVYNSTTADFIVSMTEMLLQGFPVSGTSQTFPALREDQVAFGLPAAPGAAGSGYTAPAEVKKALNYLTKGQSYGGTYVIRKAAGYPGLRGIMTWSVNWDKVNNSEFAANYYPYFFGT
notes: as for B1
**Q.** B4 was tested. Which Km [4] did it give?
**A.** 220 ± 3 µM

**Q.** And the kcat [4]?
**A.** 2.6587 ± 0.035 s⁻¹

**Q.** What about the kcat/Km [4] of the same protein?
**A.** 11800 M⁻¹ s⁻¹
